Laboratory results as given in article PMC10821612.

Tests used:
[1] = target: AMS0229 E1E2 glycoprotein on HCV pseudoparticles (HCVpp) (Hepatitis C virus (genotype 1a))
[2] = target: UKNP1.2.3 E1E2 glycoprotein on HCV pseudoparticles (HCVpp) (Hepatitis C virus)
[3] = target: UKNP2.4.1 E1E2 glycoprotein on HCV pseudoparticles (HCVpp) (Hepatitis C virus (genotype 2))

Substance: Soluble CD81 LEL with Strep-tag (soluble version of the long external loop of the CD81 receptor) (domain or fragment)
- IC50 of neutralisation of HCVpp infection of Huh-7 cells (luciferase) [1]: 92 µg/mL
- IC50 of neutralisation of HCVpp infection of Huh-7 cells (luciferase) [2]: 85 µg/mL
- IC50 of neutralisation of HCVpp infection of Huh-7 cells (luciferase) [3]: 82 µg/mL
